Assay in all cases: GST pulldown (co-precipitation), anti-HA western blot band quantification
(Immunoblotting shows a protein as a band on a membrane.)

The target of experiment [1] is ESCRT-I complex: GST–TSG101 (m6) + Myc–VPS28 + HA–VPS37B (m10). Particulars: input 1%, value = UMAD1 pulldown band intensity / input band intensity, parent: 2.4.
Experiment [2] addresses ESCRT-I complex: GST–TSG101 (m6) + Myc–VPS28 + HA–VPS37C (m11). Conditions: input 1%, value = UMAD1 pulldown band intensity / input band intensity, parent: 2.1.
The target of experiment [3] is ESCRT-I complex: GST–TSG101 (m6) + Myc–VPS28 + HA–VPS37D (m12). Particulars: input 1%, value = UMAD1 pulldown band intensity / input band intensity, parent: 0.3.

HA–UMAD1 (from UniProt C9J7I0) E130A: the response in experiment [1] (293T cells co-transfected with GST–TSG101, Myc–VPS28, HA–VPS37B and HA–UMAD1 M4) worked out at 0.2; in experiment [2] (293T cells co-transfected with GST–TSG101, Myc–VPS28, HA–VPS37C and HA–UMAD1 M4), 0.4; in experiment [3] (293T cells co-transfected with GST–TSG101, Myc–VPS28, HA–VPS37D and HA–UMAD1 M4) it was 0.
With HA–UMAD1 (from UniProt C9J7I0) F127A, the response in experiment [1] (293T cells co-transfected with GST–TSG101, Myc–VPS28, HA–VPS37B and HA–UMAD1 M3) is 1.2; in experiment [2] (293T cells co-transfected with GST–TSG101, Myc–VPS28, HA–VPS37C and HA–UMAD1 M3), 1.2; in experiment [3] (293T cells co-transfected with GST–TSG101, Myc–VPS28, HA–VPS37D and HA–UMAD1 M3) it was 0.
On to “HA–UMAD1 (from UniProt C9J7I0) V89A; P90A; F91A”, for which the response in experiment [1] (293T cells co-transfected with GST–TSG101, Myc–VPS28, HA–VPS37B and HA–UMAD1 M1) amounted to 0; in experiment [2] (293T cells co-transfected with GST–TSG101, Myc–VPS28, HA–VPS37C and HA–UMAD1 M1), 0; in experiment [3] (293T cells co-transfected with GST–TSG101, Myc–VPS28, HA–VPS37D and HA–UMAD1 M1), 0.
As for HA–UMAD1 (from UniProt C9J7I0) Y125A, the response in experiment [1] (293T cells co-transfected with GST–TSG101, Myc–VPS28, HA–VPS37B and HA–UMAD1 M2) came out at 0.4; in experiment [2] (293T cells co-transfected with GST–TSG101, Myc–VPS28, HA–VPS37C and HA–UMAD1 M2), 0.6; in experiment [3] (293T cells co-transfected with GST–TSG101, Myc–VPS28, HA–VPS37D and HA–UMAD1 M2), 0.

Source of the values: article PMC10445733.
